Source: patent US20190153406

What was measured:
[1] = tested on: IRS1 (insulin receptor substrate-1), species not stated

Substance | MG53-mediated substrate degradation, Western Blot, HEK293T co-expression (FIG. 17) [1] | degradation of IRβ, Western Blot, HEK293T co-expression (FIG. 16B) (insulin receptor IR) | degradation of precursor protein of IRβ, HEK293T co-expression (insulin receptor IR) | MG53-mediated substrate degradation, Western Blot, HEK293T co-expression (FIG. 16) [1]
human MG53-D-RING truncated mutant | human or mouse MG53-D-RING truncated mutant can hardly mediate IRS1 degradation | – | – | –
mouse MG53-D-RING truncated mutant | – | mouse MG53-D-RING truncated mutant and mouse MG53 S255A mutant can hardly mediate IRβ degradation | mouse MG53-D-RING truncated mutant and mouse MG53 S255A mutant almost completely inhibited MG53-mediated degradation | human or mouse MG53-D-RING truncated mutant can hardly mediate IRS1 degradation
